Laboratory results published in patent US20030148420.

Biological target: T1, Aspergillus ochraceus 11 alpha hydroxylase
T1 chain: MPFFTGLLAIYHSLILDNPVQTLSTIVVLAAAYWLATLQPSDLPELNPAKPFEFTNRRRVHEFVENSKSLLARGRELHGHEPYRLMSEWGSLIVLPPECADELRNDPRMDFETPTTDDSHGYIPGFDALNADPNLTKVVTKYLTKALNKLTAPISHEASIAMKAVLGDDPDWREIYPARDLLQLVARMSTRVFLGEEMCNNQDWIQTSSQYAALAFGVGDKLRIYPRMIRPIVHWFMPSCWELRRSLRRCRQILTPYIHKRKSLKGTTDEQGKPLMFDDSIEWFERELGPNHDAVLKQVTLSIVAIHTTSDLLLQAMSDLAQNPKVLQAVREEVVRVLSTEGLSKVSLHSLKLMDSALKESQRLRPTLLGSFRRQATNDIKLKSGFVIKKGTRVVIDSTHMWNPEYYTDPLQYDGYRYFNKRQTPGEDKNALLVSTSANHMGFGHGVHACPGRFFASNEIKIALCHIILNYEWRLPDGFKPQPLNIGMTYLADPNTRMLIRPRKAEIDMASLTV

B1: human oxidoreductase (protein)
chain: MGDSHVDTSSTVSEAVAEEVSLFSMTDMILFSLIVGLLTYWFLFRKKKEEVPEFTKIQTLTSSVRESSFVEKMKKTGRNIIVFYGSQTGTAEEFANRLSKDAHRYGMRGMSADPEEYDLADLSSLPEIDNALVVFCMATYGEGDPTDNAQDFYDWLQETDVDLSGVKFAVFGLGNKTYEHFNAMGKYVDKRLEQLGAQRIFELGLGDDDGNLEEDFITWREQFWPAVCEHFGVEATGEESSIRQYELVVHTDIDAAKVYMGEMGRLKSYENQKPPFDAKNPFLAAVTTNRKLNQGTERHLMHLELDISDSKIRYESGDHVAVYPANDSALVNQLGKILGADLDVVMSLNNLDEESNKKHPFPCPTSYRTALTYYLDITNPPRTNVLYELAQYASEPSEQELLRKMASSSGEGKELYLSWVVEARRHILAILQDCPSLRPPIDHLCELLPRLQARYYSIASSSKVHPNSVHICAVVVEYETKAGRINKGVATNWLRAKEPAGENGGRALVPMFVRKSQFRLPFKATTPVIMVGPGTGVAPFIGFIQERAWLRQQGKEVGETLLYYGCRRSDEDYLYREELAQFHRDGALTQLNVAFSREQSHKVYVQHLLKQDREHLWKLIEGGAHIYVCGDARNMARDVQNTFYDIVAELGAMEHAQAVDYIKKLMTKGRYSLDVWS
  conversion of 4-androstene-3,17-dione (AD) to 11 alpha-hydroxy-AD, by HPLC: successfully catalyzed the conversion of the steroid substrate 4-androstene-3,17-dione (AD) to 11 alpha-hydroxy-AD
